# “And” between values parts separate entries of the source, which are not always exact repeats. Identical values can stand only once.
# Assays:
# [1] = biological target: LS-Spy-rTT-FP8v1/PEG2 nanoparticle carrier (HIV-1); test: isothermal titration calorimetry (ITC), Fab against conjugate
# [2] = biological target: FP-rTT monomer (HIV-1 Env fusion peptides conjugated to monomeric rTT) (HIV-1); test: as above
substance,measurement,setting,value
VRC34.01 Fab,competent Fab binding sites per entity (ITC stoichiometry) (binding sites per nanoparticle carrier),[1],152 and 402
same,competent Fab binding sites per entity (ITC stoichiometry) (binding sites per FP-rTT monomer),[2],6

# — patent publication US20210353740A1
